Ends that are not written are not given here.
How the values were obtained:
[1] = system: protein kinase C (PKC); assay: Inhibition of protein kinase C activity
[2] = molecular target: T1, papain (Carica papaya, UniProt P00784); settings: at 160 uM; cited from earlier work
T1 sequence (P00784 134-345): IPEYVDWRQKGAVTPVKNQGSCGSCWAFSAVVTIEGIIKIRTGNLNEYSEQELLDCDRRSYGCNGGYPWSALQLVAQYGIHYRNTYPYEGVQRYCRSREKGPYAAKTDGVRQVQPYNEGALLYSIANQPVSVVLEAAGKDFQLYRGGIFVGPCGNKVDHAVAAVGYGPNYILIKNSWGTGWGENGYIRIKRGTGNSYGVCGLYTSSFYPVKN

[3] = system: metastatic human melanoma 1205 Lu cells; assay: MTT growth assay of human 1205 Lu melanoma cells with peptide; type: cell-based; settings: peptide 10 uM, 1 time addition or day 1-3 addition; identical conditions as for B16
Protocol: B16F10 melanoma cells were obtained from the ATCC. Human 1205 Lu metastatic melanoma cell line was received from Robert Baer, PhD, a collaborator with our laboratory here at ATSU. Growth was in RPMI 1640 media supplemented with FBS (10%) and penicillin, streptomycin, amphotericin antibiotics (1%) (Sigma). Cells were maintained in a humidified incubator at 37° C. with 5% CO2.
The growth of B16F10 melanoma cells by the MTT method was performed with the addition of 10 uM peptide to the melanoma cells in standard 96-well culture plates. Cells were cultured in media for 4 days after seeding at about 1000 cells per well. After growth the culture media was replaced with media containing 0.5 mg/ml MTT solution and incubated for 4 hours at 37° C. The MTT solution was then removed and the residual dye was solubilized in 100 ul isopropanol for 15 minutes before reading the O.D. at 570 nm.

[4] = system: B16 melanoma cells; assay: Boyden chamber-type migration assay, Cystatin C overexpressing clone cc6 versus control plasmid clone pc2; type: cell-based, murine; settings: B16 melanoma cells overexpressing Cystatin C (clone cc6) compared to control plasmid transfected (pc2); bFGF chemotactic factor
From the text: (§1) The Cystatin C cDNA was amplified from B16F10 melanoma cells by PCR amplification of reverse transcribed total RNA isolated from B16 F10 melanoma cells in culture. The primers used for the amplification were derived from 5′ and 3′ sequences for murine Cystatin C from Solem et al. (18). The PCR product corresponding to the expected size was agarose gel purified and ligated into pcDNA3 expression plasmid for further analysis. The plasmid was sent to for sequence analysis at the University of Chicago and the sequence analysis produced a cDNA sequence which exactly matched murine Cystatin C cDNA sequence (19). Transfection of the cystatin plasmid or pcDNA3 plasmid was carried out with Lipofectamine™ reagent (Invitrogen) by the manufacturer's instructions. Isolated cell colonies, which had grown following Geneticin® (1 mg/ml) selection were trypsized in glass cloning rings and transferred to multi-well tissue culture dishes for expansion in culture.
Cells (2×104) are placed into the top well of the Boyden chamber in cell culture media while media plus bFGF chemotactic factor (25 ng/ml) is placed into the lower well of the chamber. Quantitation is through direct microscopic counting of 10-20 fields of crystal violet stained cells per filter.

[5] = system: MARCKS phosphorylation in B16F10 melanoma cells; assay: MARCKS phosphorylation by western blot with phospho-antibody probing; type: cell-based; settings: murine Cystatin C overexpressing clone cc6 B16F10 melanoma cells vs control
From the text: as §1
For analysis of B16 melanoma proteins, melanoma cell cultures were lysed with lysis buffer and extracts were centrifuged at 10K rpm for 5 minutes. Protein was measured by Lowry assay and 40 ug of protein was loaded per lane on 10% SDS-PAGE gels for analysis. After electrophoresis, the proteins were transferred to PVDF membranes which were first blocked with 2% BSA in TBST buffer. […]

For “YRKQLVAGVNYFFDVH (listed as Mus musculus) [therapeutic peptide, Therapeutic peptide derived from mouse Cystatin C with the first A substituted by Y]”, the “inhibition of protein kinase C (PKC) activity” value [1] is given as “inhibits” and the inhibition of papain [2] is given as 20%.

For “RQIKIWFPNRRMKWKKAYRKQLVAGVNYFFDVH [penetratin linked to active peptide]”, the “growth of human 1205 Lu melanoma cell line” value [3] was “significantly inhibits”.

B1: Cystatin C: natural cysteine protease inhibitor; murine Cystatin C cDNA overexpressed from pcDNA3 plasmid in B16F10 melanoma cells (clone cc6) (protein, UniProt P21460 21-140, looked up)
Cystatin-C: ATPKQGPRMLGAPEEADANEEGVRRALDFAVSEYNKGSNDAYHSRAIQVVRARKQLVAGVNYFLDVEMGRTTCTKSQTNLTDCPFHDQPHLMRKALCSFQIYSVPWKGTHSLTKFSCKNA
With B1 the inhibition of migration [4] was roughly 80% and the “average level of MARCKS phosphorylation, fold less” value [5] was 3-5 fold.

Source: patent US9567369B2, “Method of treating metastatic cancer” (A.T. Still University, priority 2012, dated 2017)
